Substitutions are numbered along the chain they refer to.

From US20230416378A1 (Boehringer Ingelheim, published 2023) come the findings set out here.

Assay [1] has as its target T1, Neuropilin-1 (Nrp1) endogenously expressed on human endothelial cells (HRMEC, HUVEC) (human, UniProt O14786 22-923). The assay can be described thus: cell-based or functional assay.
The target of assay [2] is T1, Neuropilin-1 (Nrp1) endogenously …. The assay is described as follows: cell-based or functional assay. The source holds these as a separate data set.
For assay [3], the target named is T2, human Nrp1 (soluble analyte in SPR and BLI) (human, UniProt O14786 22-856, limits assumed).
T2 construct: also called hNrp1; Human Nrp1A
The assay can be described thus: SPR, antibody captured on Protein A/G (GLM sensorchip), human Nrp1A as analyte 0-100 nM, 1:1 Langmuir fit. The protocol: The running buffer for this experiment and all dilutions (except where stated) were done in PBS-T-EDTA with 0.01% Tween20 [100 ul of 100% Tween20 was added to 2L of PBS-T-EDTA to make final Tween 20 concentration of 0.01%]. The GLM sensorchip was normalized and pre-conditioned as per the manufacturer's recommendations. The sensorchip was activated with equal mixture of EDC/s-NHS in the horizontal direction for 300 sec at a flow rate of 30 μl/min and immobilized with Recombinant Protein NG (60 μg/ml in 10 mM acetate pH 4.5) in the horizontal direction for 300 sec at a flowrate of 30 μl/min. The sensorchip was deactivated with 1M ethanolamine HCl in the horizontal direction for 300 sec at a flowrate of 30 μl/min. The sensorchip was stabilized with 18 sec of 0.85% phosphoric acid at a flowrate of 100 μl/min 3 times horizontally and 3 times vertically.
Human Nrp1A was prepared in PBS-T-EDTA buffer at concentrations of 100, 50, 25, 12.5, 6.25, and 0 nM. A PBS-T-EDTA buffer injection was used as a double reference for the kinetic data analysis. Each of the human Nrp1A solutions and PBS-T-EDTA buffer were injected simultaneously over the 6 horizontal channels for 5 min at a flow rate of 40 μL/min followed by 30 min dissociation phase. The surfaces were regenerated by an 18 sec injection of 0.85% Phosphoric acid at a flow rate of 100 μL/min followed by an injection of sec PBS-T-EDTA at a flow rate of 100 μL/min. The interspot (interactions with sensor surface) and blank (PBS-T-EDTA with 0.01% Tween20 or 0 nM analyte) were subtracted from the raw data.
In general terms: In SPR one partner is held on a chip, and binding of the other changes the refractive index at the surface.

Assay [4] has as its target T2, human Nrp1 (soluble analyte in SPR and …). The assay can be described thus: SPR, antibody captured on Protein A/G (GLM sensorchip), Nrp1 as analyte 0-100 nM, 1:1 Langmuir fit. Here is the method:
(§1) The running buffer for this experiment and all dilutions (except where stated) were done in PBS-T-EDTA with 0.01% Tween20 [100 ul of 100% Tween20 was added to 2L of PBS-T-EDTA to make final Tween 20 concentration of 0.01%]. The GLM sensorchip was normalized and pre-conditioned as per the manufacturer's recommendations. […] The sensorchip was deactivated with 1M ethanolamine HCl in the horizontal direction for 300 sec at a flowrate of 30 μl/min. The sensorchip was stabilized with 18 sec of 0.85% phosphoric acid at a flowrate of 100 μl/min 3 times horizontally and 3 times vertically.
(§2) The baseline was stabilized by injecting PBS-T-EDTA for 60 sec at a flowrate of 100 μl/min horizontally with dissociation of 120 sec. The analyte was injected horizontally over the captured antibody for 300 sec at a flowrate of 30 μl/min and a dissociation for 1800 sec. The concentrations of the analytes were 0 nM, 6.25 nM, 12.5 nM, 25 nM, 50 nM, and 100 nM. The surface was regenerated by injecting 0.85% phosphoric acid for 18 sec at a flowrate of 100 μl/min one time horizontally and one time vertically. PBS-T-EDTA was injected for 60 sec at a flowrate of 100 μl/min one time vertically and one time horizontally.
(§3) The interspot (interactions with sensor surface) and blank (PBS-T-EDTA with 0.01% Tween20 or 0 nM analyte) were subtracted from the raw data.

The next assay deals with T3, cyno Nrp1 (cyno, UniProt A0A2K5V5E7 24-858).
T3 construct: also called cyno-Nrp1A
Described as above. The protocol:
as §1, §2, §3

The next assay has as its target T4, rat Nrp1 (rat, UniProt Q9QWJ9 22-855, limits assumed).
T4 construct: also called rat Nrp1A
Described as above. The protocol:
as §1, §2, §3

For a further assay, the target named is T5, mouse Nrp1 (mouse, UniProt P97333 22-856, limits assumed).
T5 construct: also called mouse Nrp1A
Described as above. Here is the method:
as §1, §2, §3

Another assay deals with T6, gerbil Nrp1 (gerbil).
T6 construct: also called gerbil Nrp1A
The assay is described as above. Here is the method:
as §1, §2, §3

T1 sequence (O14786 22-923 V179A limits assumed): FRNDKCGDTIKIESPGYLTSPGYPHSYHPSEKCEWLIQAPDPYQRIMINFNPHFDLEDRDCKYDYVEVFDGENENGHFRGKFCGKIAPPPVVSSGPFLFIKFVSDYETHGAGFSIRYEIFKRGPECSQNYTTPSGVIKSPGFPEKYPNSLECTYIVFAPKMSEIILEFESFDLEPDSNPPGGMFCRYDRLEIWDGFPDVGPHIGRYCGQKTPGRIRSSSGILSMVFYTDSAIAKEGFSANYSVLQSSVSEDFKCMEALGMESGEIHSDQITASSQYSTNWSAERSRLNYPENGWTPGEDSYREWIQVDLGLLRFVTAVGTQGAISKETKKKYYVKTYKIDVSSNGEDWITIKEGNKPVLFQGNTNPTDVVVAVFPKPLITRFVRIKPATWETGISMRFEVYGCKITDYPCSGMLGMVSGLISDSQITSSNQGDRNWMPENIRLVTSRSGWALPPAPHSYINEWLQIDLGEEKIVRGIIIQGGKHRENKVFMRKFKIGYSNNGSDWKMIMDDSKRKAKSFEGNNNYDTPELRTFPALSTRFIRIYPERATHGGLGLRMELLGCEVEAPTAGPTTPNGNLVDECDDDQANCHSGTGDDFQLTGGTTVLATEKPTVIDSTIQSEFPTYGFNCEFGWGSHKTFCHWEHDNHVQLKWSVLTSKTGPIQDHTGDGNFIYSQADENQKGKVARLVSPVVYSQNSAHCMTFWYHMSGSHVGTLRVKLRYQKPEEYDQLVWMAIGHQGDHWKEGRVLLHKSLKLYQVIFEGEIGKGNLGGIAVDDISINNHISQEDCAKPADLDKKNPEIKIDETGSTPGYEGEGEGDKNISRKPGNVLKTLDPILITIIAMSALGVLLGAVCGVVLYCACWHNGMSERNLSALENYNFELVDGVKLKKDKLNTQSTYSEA
T2 sequence (O14786 22-856 V179A limits assumed): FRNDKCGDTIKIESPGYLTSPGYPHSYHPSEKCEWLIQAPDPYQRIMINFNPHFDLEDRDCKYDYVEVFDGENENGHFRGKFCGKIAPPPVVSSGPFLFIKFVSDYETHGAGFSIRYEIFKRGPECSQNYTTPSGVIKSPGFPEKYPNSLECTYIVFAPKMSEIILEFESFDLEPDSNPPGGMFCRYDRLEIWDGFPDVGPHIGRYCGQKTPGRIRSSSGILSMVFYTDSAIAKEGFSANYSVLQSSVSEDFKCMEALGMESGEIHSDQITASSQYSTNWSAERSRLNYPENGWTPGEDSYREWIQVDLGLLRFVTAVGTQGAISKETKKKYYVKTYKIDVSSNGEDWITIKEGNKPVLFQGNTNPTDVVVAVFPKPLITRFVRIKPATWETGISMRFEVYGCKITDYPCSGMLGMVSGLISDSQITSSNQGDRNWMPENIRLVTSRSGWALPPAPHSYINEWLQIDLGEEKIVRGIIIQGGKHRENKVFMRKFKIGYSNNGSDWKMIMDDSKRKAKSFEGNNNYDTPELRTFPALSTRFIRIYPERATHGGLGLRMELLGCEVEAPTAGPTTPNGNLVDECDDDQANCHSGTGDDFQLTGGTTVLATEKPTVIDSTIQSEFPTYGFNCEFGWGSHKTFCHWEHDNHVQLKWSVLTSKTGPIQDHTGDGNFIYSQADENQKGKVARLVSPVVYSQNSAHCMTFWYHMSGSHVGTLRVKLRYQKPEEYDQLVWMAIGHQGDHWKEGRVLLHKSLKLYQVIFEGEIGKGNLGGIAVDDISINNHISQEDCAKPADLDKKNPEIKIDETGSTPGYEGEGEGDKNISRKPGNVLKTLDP
T3 sequence (A0A2K5V5E7 entry or part of it): as the sequence (O14786 22-856 V179A limits assumed) above, with H77R, F78L, R79W, P96Q, L258V, V341I, M396L, I460V, L578P counted along it
T5 sequence (P97333 22-856 limits assumed): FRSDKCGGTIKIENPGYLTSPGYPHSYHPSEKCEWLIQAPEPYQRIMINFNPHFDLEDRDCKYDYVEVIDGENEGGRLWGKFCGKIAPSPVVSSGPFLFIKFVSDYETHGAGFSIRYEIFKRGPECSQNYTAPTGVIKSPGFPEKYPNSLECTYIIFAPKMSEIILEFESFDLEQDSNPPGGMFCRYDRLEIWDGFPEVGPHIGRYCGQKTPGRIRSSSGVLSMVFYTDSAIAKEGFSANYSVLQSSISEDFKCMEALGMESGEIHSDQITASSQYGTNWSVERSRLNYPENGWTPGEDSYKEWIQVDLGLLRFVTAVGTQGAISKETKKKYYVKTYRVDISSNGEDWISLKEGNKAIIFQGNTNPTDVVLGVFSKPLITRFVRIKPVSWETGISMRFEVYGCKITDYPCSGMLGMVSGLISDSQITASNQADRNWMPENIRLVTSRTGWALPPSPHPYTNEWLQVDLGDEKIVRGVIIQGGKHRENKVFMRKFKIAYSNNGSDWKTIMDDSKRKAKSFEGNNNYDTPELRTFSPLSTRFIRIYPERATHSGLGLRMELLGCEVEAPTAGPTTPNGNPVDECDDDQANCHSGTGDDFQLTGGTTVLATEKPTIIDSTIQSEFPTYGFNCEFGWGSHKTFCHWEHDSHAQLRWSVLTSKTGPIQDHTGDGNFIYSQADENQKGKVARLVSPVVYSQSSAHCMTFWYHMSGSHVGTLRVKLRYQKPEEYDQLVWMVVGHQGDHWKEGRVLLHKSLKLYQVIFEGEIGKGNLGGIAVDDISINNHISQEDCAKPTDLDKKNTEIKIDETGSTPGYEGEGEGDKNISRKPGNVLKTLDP
T4 sequence (Q9QWJ9 22-855 limits assumed): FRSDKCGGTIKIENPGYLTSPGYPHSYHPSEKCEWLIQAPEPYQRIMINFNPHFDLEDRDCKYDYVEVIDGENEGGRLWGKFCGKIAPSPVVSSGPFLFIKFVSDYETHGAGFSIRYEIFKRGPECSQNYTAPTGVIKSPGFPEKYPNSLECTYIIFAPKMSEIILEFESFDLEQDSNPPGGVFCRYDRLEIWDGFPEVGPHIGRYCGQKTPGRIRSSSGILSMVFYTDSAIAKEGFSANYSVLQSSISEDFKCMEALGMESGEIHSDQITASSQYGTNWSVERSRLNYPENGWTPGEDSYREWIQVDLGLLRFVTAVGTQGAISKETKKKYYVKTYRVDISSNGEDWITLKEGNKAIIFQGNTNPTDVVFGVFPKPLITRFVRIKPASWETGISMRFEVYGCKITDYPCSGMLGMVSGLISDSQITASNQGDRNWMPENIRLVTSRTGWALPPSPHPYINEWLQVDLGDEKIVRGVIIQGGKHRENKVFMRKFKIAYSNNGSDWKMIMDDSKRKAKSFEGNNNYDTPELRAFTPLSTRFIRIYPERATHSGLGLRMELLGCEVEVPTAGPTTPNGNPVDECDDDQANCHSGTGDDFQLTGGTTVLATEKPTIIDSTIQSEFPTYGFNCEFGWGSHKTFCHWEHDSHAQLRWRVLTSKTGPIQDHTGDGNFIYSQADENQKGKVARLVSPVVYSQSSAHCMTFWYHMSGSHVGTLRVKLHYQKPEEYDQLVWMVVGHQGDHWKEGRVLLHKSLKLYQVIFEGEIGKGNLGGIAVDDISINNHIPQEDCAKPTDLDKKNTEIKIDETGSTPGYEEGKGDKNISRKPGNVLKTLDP

B1: YW64.3, comparative antibody directed against Nrp1A (antibody, human IgG1, kappa, L234A L235A, V domains shown)
VH: EVQLVESGGGLVQPGGSLRLSCAASGFSFSSEPISWVRQAPGKGLEWVSSITGKNGYTYYADSVKGRFTISADTSKNTAYLQMNSLRAEDTAVYYCARWGKKVYGMDVWGQGTLVTVSS
VL: DIQMTQSPSSLSASVGDRVTITCRASQSISSYLAWYQQKPGKAPKLLIYGASSRASGVPSRFSGSGSGTDFTLTISSLQPEDFATYYCQQYMSVPITFGQGTKVEIKR
notes: Made for comparison after WO2007056470; also called anti-Nrp1A (YW64.3); Clone YW64.3
Regarding B1, the “Collapse assay IC50” value in assay [1] was found to be 0.056 nM. In addition, the “VEGF induced cell integrity loss IC50” value in assay [2] was determined as 12.6 nM. For the same molecule, in assay [3], the Kd was determined as 11.3 nM.

B2: YW107.4.87, comparative antibody directed against Nrp1B (antibody, human IgG1, kappa, V domains shown)
VH: EVQLVESGGGLVQPGGSLRLSCAASGFTFSSYAMSWVRQAPGKGLEWVSQISPAGGYTNYADSVKGRFTISADTSKNTAYLQMNSLRAEDTAVYYCARGELPYYRMSKVMDVWGQGTLVTVSS
VL: B1 VL with S28Y, I29F, M92L, S93G, V94S, I96P
notes: Made for comparison after WO2007056470; also called anti-Nrp1B (YW107.4.87)
For the molecule B2, in assay [2], the “VEGF induced cell integrity loss IC50” value was found to be 13.7 nM. Also, in assay [3], the Kd turned out to be 37.5 nM.

B3: Antibody of the invention (clone I), humanized anti-Nrp1A antibody (antibody, human IgG1, kappa, L234A L235A, V domains shown)
VH: EVQLLESGGGLVKPGGSLRLSCAASGFTFSSYAMSWVRQAPGKGLEWVSSISRTGYTYYAESVKGRFTISRDESKQTLYLQMQSLKTEDTAVYYCARVGTAFDYWGQGTLVTVSS
VL: not shown
notes: also called exemplary antibody of the invention; lead compound
Regarding B3, the “Collapse assay IC50” value in assay [1] is 0.098 nM. The “VEGF induced cell integrity loss IC50” value in assay [2] is 0.74 nM. The Kd in assay [4] was determined as 11.1 nM; with cyno Nrp1, 15.2 nM; in the assay with rat Nrp1, 10.5 nM; with mouse Nrp1 it was 7.7 nM; with gerbil Nrp1, 13.9 nM; in assay [3], 11.1 nM.

What is called Kd is the concentration at which binding is half-saturated.
